Consider 98 sequences from the supplement of paper PMC6755084.

For this data set, the system named is F1*sub RNA substrate (template-directed ligation). The data set can be described thus: fraction ligated after 30 min (ligated reads / total reads); higher = more ligase activity; sequences stand for … in GAGACCGCAACTGAAAAGTTGT…AGTTCTGCACGTAGAAGCAAAAGGC
The following applies: 42 °C. An outline of the steps:
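Oligo-pool templates underwent PCR amplification, T7 transcription and gel purification to yield ribozyme variants. Gel-separated ligated and unligated bands were converted to complementary DNA with barcoded primers and sequenced on a MiSeq, keeping core bases of quality ≥20. The ratio of ligated reads to total reads gave the fraction ligated for every variant.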
Sequence TTCACTTGTCGTAGACCTTTGGATGGGTTGA [3d433] registered a fraction ligated of 0.751.

In the case of “TATCACTTGTGTAAGCACTTTGGTGGGTTGA [3d1759]”, the fraction ligated was 0.117. In turn, “TATCACTTGTCGTAAGACACTTTGGATGGTTG [2d297]” came in with a fraction ligated of 0.531. On to TATACTTGTCGTAAACACTTTGATGGGTTGA [3d887], for which the fraction ligated worked out at 0.182. On to TACACTTGTCGTAAGAACTTTGGAGGGTTGA [3d696], for which the fraction ligated stood at 0.0171. As for TTCACTTGTCGTGACACTTTGGATGGGTTGA [3d429], the fraction ligated worked out at 0.255.

In turn, “TATCACTTGTGTAAGAACTTGGATGGGTTGA [3d1765]” came in with a fraction ligated of 0.84. In turn, TATACTTGTCTAAGACACTTGGATGGGTTGA [3d850] returned a fraction ligated of 0.766.

“TATCACTTGTCGTAAGCATTTGGATGGGTTA [3d2126]” registered a fraction ligated of 0.784. The figure for “TATCACGTGTAAGACACTTTGGATGGGTTGA [3d1295]” is 0.829; for TACCTTGTCGTAAGACACTTTGGATGGTTGA [3d544] it is 0.233; for ATCACTGTCGAAGACACTTTGGATGGGTTGA [3d110] it is 0.775. The figure for “TATCACTTGCGTAAGACCTTGGATGGGTTGA [3d1667]” is 0.797.

Regarding TTCACTTTCGAAGACACTTTGGATGGGTTGA [3d357], the fraction ligated is 0.145. ATCACTTGTCGTAAGACACTTTGGAGGGTTGA [2d21] had a fraction ligated of 0.189.

ATCACTTGTCGTAAGACTTTGGATGGGTTGA [3d221] came in with a fraction ligated of 0.727. Turning to “TATCACTTGTCGTAGACACTTGGATGGTTGA [3d2039]”, the fraction ligated amounted to 0.095.

TATCCTTGCGTAAGACACTTTGGATGGGTTGA [2d92] returned a fraction ligated of 0.803.

In turn, “TATCACTTGTGTAAGACACTTTGATGGGTTG [3d1798]” displayed a fraction ligated of 0.544.

The sequence “TATCACTTGTCAAACACTTTGGATGGGTTGA [3d1811]” registered a fraction ligated of 0.802. In turn, “TATCCTTGTCGTAAACACTTTGATGGGTTGA [3d1059]” came in with a fraction ligated of 0.758.

In the case of “TATCACTTGTCGTAAAACTTTGGATGGGTTGA [2d234]”, the fraction ligated amounted to 0.818. TACACTTGCGTAAGAACTTTGGATGGGTTGA [3d607] returned a fraction ligated of 0.015. Turning to TATACTTGTCGTAAGCACTTTGGATGGGTTA [3d901], the fraction ligated is 0.0196. Take “TATCATTGTCGTAAGACCTTTGATGGGTTGA [3d1256]”: the fraction ligated was 0.778.

“TATCACTTGTCGAAGACCTTTGGATGGGTTG [3d1949]” showed a fraction ligated of 0.79. As to TTCACTTGTCGTAAGAACTTTGGATGGGTTA [3d468], the fraction ligated worked out at 0.0936. As for “TATCACTTGCGTAAGACATTTGGATGGGTTA [3d1679]”, the fraction ligated turned out to be 0.808. The figure for TATCTTGTCGTAAGACACTTTGGTGGGTTGA [3d753] is 0.563; for ATCACTTGTCTAAGACACTTTGGTGGGTTGA [3d180] it is 0.0503. “TATCACTGTCGTAAGACACTTTGGTGGGTTA [3d1455]” displayed a fraction ligated of 0.0411. Sequence “TATCATTGTCTAGACACTTTGGATGGGTTGA [3d1188]” had a fraction ligated of 0.765. Sequence TAACTTTCGTAAGACACTTTGGATGGGTTGA [3d510] registered a fraction ligated of 0.0478. Consider TATATTGTCGTAAGAACTTTGGATGGGTTGA [3d767], for which the fraction ligated is 0.468.

As for “TATCACTTGTCGTAACACTTTGGATGGGTTGA [2d222]”, the fraction ligated was 0.796.

For the sequence TACACTTGGTAAGACACTTTGGATGGGTTGA [3d601], the fraction ligated turned out to be 0.0847.

Sequence “TATCACTTTCTAAGACACTTTGGATGGGTTG [3d1492]” had a fraction ligated of 0.785.

The sequence “TATCACTTGTCGTAAACACTTTGGATGGTTGA [2d241]” had a fraction ligated of 0.295. The sequence TACACTTGTCGTAAGCCTTTGGATGGGTTGA [3d683] displayed a fraction ligated of 0.0763.

With “TATCACTGTCGTAAGAACTTTGGATGGGTTG [3d1425]”, the fraction ligated was determined as 0.87. Sequence TATACTTGTCGTAAGAACTTTGGATGGGTTA [3d909] had a fraction ligated of 0.0459.

In the case of “TATCACTTGTCGTAAGAATTTGGATGGTTGA [3d2156]”, the fraction ligated was determined as 0.208.

Turning to “TATCACTTGTCGAAGACATTTGGATGGGTTA [3d1955]”, the fraction ligated was determined as 0.788. For TATACTTTCGTAAGACACTTTGGAGGGTTGA [3d808], the fraction ligated worked out at 0.00847. Take TTCACTTTCGTAAGACACTTTGATGGGTTGA [3d365]: the fraction ligated amounted to 0.0352. In the case of ATCCTTGTCGTAAGACACTTGGATGGGTTGA [3d79], the fraction ligated stood at 0.733. ACACTTGTCGTAAGAACTTTGGATGGGTTGA [3d36]: the fraction ligated was found to be 0.218.

The sequence TATATGTCGTAAGACACTTTGGATGGGTTGA [3d758] gave a fraction ligated of 0.57. The figure for “TATCACTGCGTAGACACTTTGGATGGGTTGA [3d1330]” is 0.862; for “TATCACTGTCGTAGACACTTGGATGGGTTGA [3d1391]” it is 0.799; for TATCCTTTCGAAGACACTTTGGATGGGTTGA [3d970] it is 0.8. The figure for “TATCACTTGTGTAGACACTTTGGATGGGTTGA [2d181]” is 0.871; for “TATCATTTCGTAAGACCTTTGGATGGGTTGA [3d1147]” it is 0.775. The sequence “TATCACTTGTCTAAGACCTTTGGATGGGTTA [3d1869]” registered a fraction ligated of 0.732.

In turn, ATCACTTGTCGTAAACACTTGGATGGGTTGA [3d214] showed a fraction ligated of 0.742. Take ATCACTTGTCGTAGACACTTTGGATGGGTTA [3d209]: the fraction ligated is 0.728. As for TACACTTGTCGTAAGAACTTGGATGGGTTGA [3d693], the fraction ligated came to 0.00498. The sequence TATACTTGTCGTAAGCACTTTGGAGGGTTGA [3d899] registered a fraction ligated of 0.0271. On to TACACTTGTGTAAGACACTTTGGATGGGTTGA [2d53], for which the fraction ligated worked out at 0.243. The result for “TATCACTTGTCGAGACACTTGGATGGGTTGA [3d1908]” reads 0.793. With “TATCACTTGTCGTAAACACTTTATGGGTTGA [3d2088]”, the fraction ligated was found to be 0.0805. In turn, TATACTTGTCGTAAGACACTTGGAGGGTTGA [3d928] yielded a fraction ligated of 0.0325. As for “TATCACTTGTCGTAAGCATTGGATGGGTTGA [3d2121]”, the fraction ligated stood at 0.756. TATACTTGTGTAAGACACTTTGATGGGTTGA [3d837]: the fraction ligated worked out at 0.81. Sequence “TATCACTTGTCGTAAACACTTTGGAGGGTTA [3d2099]” had a fraction ligated of 0.101. With TACACTTGTCGTAAGCACTTTGGATGGTTGA [3d689], the fraction ligated was 0.101. Sequence TATACTTGTGTAAGACACTTTGGATGGGTTG [3d842] had a fraction ligated of 0.809. “TATCCTTGTGTAAGACACTTTGGATGGGTTA [3d1013]”: the fraction ligated came to 0.406.

As to “TATCCTTGTCGTAAGCACTTTGGATGGGTTA [3d1073]”, the fraction ligated came to 0.381. In turn, TACACTTGTCGAAGACACTTTGGATGGGTTG [3d658] gave a fraction ligated of 0.593. The result for TACACTTGTCTAAGACACTTTGGATGGGTTA [3d644] reads 0.131.

The sequence “TATCACTTGTCTAAGCACTTTGGAGGGTTGA [3d1852]” registered a fraction ligated of 0.128.

“TATCACTGTCGTAAGACTTTGGATGGGTTGA [3d1408]”: the fraction ligated is 0.856. With TACACTTGTCGAAGACACTTTGGATGGGTTA [3d657], the fraction ligated was 0.13.

In turn, “TATCATTGTGTAAGACACTTTGGTGGGTTGA [3d1182]” showed a fraction ligated of 0.0386. In turn, “TATCCTTGTCGTAGAACTTTGGATGGGTTGA [3d1045]” registered a fraction ligated of 0.792. Consider “TATCAGTCGTAAGACACTTTGGATGGGTTGA [3d1121]”, for which the fraction ligated was determined as 0.764. The figure for “TATCACTTGTCGTAAGACATTTATGGGTTGA [3d2214]” is 0.0203. On to TTCCTTGTCGTAAGAACTTTGGATGGGTTGA [3d307], for which the fraction ligated is 0.765. On to “TATCACTTGTCGTAAACATTTGGATGGTTGA [3d2078]”, for which the fraction ligated worked out at 0.15. “TATCACTTTCGTAAGACACTTTGGATGGTTA [3d1581]” showed a fraction ligated of 0.0764. “TATCACTTGTGTAAGAACTTTGATGGGTTGA [3d1766]”: the fraction ligated stood at 0.834. Sequence ATCACTTGTCGTAAGACCTTTGGATGGGTTG [3d245] returned a fraction ligated of 0.706.

Sequence “TATCACTGTCGTAAGACATTTGGATGGGTTA [3d1438]” had a fraction ligated of 0.792.

“TATCACTTGTCGTAAACATTTGGAGGGTTGA [3d2077]”: the fraction ligated was determined as 0.0367. The result for ATCACTTGTCGTAAACACTTTGATGGGTTGA [3d215] reads 0.521; that for TTCACTTGTCGTAAGAACTTTGATGGGTTGA [3d464], 0.119. As to TACACTGTCGTAAGACATTTGGATGGGTTGA [3d577], the fraction ligated came to 0.617.

TACACTTGTCTAAGACACTTTGGATGGGTTG [3d645] displayed a fraction ligated of 0.595.

Sequence “TATCACTTGTCGAAGCACTTTGGATGGTTGA [3d1932]” yielded a fraction ligated of 0.159. For the sequence TTACTTGTCGTAAGACCTTTGGATGGGTTGA [3d289], the fraction ligated is 0.229. For the sequence TATACTTGTGTAAGACACTTTGGATGGGTTGA [2d74], the fraction ligated turned out to be 0.805. The sequence “TATCACTGTGTAAGACACTTTGGATGGTTGA [3d1355]” showed a fraction ligated of 0.216.

“TATCACGTCGTAAGACACTTTGATGGGTTGA [3d1305]” displayed a fraction ligated of 0.777. With TTCACTTTCTAAGACACTTTGGATGGGTTGA [3d356], the fraction ligated is 0.36. The result for TTCACTTGTCGAAACACTTTGGATGGGTTGA [3d417] reads 0.0407; that for “TATCACTTGTCGTAAACACTTTGTGGGTTGA [3d2089]”, 0.0322.

As to “TATCACTTTCTAAGACACTTTGGATGGGTTGA [2d148]”, the fraction ligated is 0.794.
